The values below come from US20220025023A1 (AC IMMUNE, published 2022).

One experiment has as its target T1, TP-31 (also: biotinylated, site not given here).
T1 construct: also called TP-31 peptide
T1 peptide: ERSGRFGGNPGGFGN
Nature of the experiment: indirect ELISA, biotinylated 15-mer on streptavidin plate, hybridoma supernatant. As to the method:
(§1) Serum-free supernatants were harvested from stable hybridomas. The supernatants containing antibodies of interest were then screened by an indirect ELISA assay to determine epitopes. Epitopes were mapped using a library of TDP-43 15-mer peptides. Briefly, 96-well streptavidin-coated 96-well ELISA plates were incubated with 5 μg/mL of biotinylated 15-mer peptides spanning the amino acids (aa) 199-285 of human TDP-43 with 9 aa offset and 6 aa overlap. Plates were washed thoroughly with 0.05% Tween-20/PBS and then blocked with 1% bovine serum albumin (BSA) in 0.05% Tween-20/PBS for 1 hour at 37° C. The antibody contained in the hybridoma supernatant was then added at the indicated dilutions, and incubated for 2 hours at 37° C. after which the plates were washed as described previously. An AP-conjugated anti-mouse IgG secondary antibody (Jackson ImmunoResearch Laboratories, United Kingdom) was added at 1/1000 dilution in 0.05% Tween-20/PBS for 1 hour at 37° C. After the final wash, plates were incubated with pNPP (Sigma-Aldrich, Switzerland) an AP substrate solution, and read at 405 nm using an ELISA plate reader (Tecan).
(An ELISA detects its analyte on a solid surface through an enzyme-linked reagent.)

For a further experiment, the target named is T2, TP-30 (also: biotinylated, site not given here).
T2 construct: also called TP-30 peptide
T2 peptide: PKHNSNRQLERSGRF
The description is as above. The procedure: as §1

The target in the next experiment is T3, TP-27 (also: biotinylated, site not given here).
T3 construct: also called TP-27 peptide
T3 peptide: ADDQIAQSLCGEDLI
The experiment is described as above. The procedure: as §1

The target of the next experiment is T4, TP-29 (also: biotinylated, site not given here).
T4 construct: also called TP-29 peptide
T4 peptide: ISVHISNAEPKHNSN
The experiment is described as above. As to the method: as §1

The target in a further experiment is T5, TP-26 (also: biotinylated, site not given here).
T5 construct: also called TP-26 peptide
T5 peptide: FRAFAFVTFADDQIA
The experiment is described as above. As to the method: as §1

The next experiment has as its target T6, TP-25 peptide (human, also: biotinylated, site not given here).
T6 construct: 15-mer of human TDP-43 from the library spanning aa 199-285; captured on streptavidin plates
T6 peptide: VMDVFIPKPFRAFAF
In words: indirect ELISA, biotinylated 15-mer peptide on streptavidin plate, hybridoma supernatant. As to the method: as §1

The target of the next experiment is T7, TP-24 peptide (human, also: biotinylated, site not given here).
T7 construct: 15-mer of human TDP-43 from the library spanning aa 199-285; captured on streptavidin plates
T7 peptide: REFFSQYGDVMDVFI
The experiment is described as above. As to the method: as §1

The next experiment concerns the target T8, BSA (bovine, UniProt P02769).
T8 construct: not specified; also called bovine serum albumin
Nature of the experiment: indirect ELISA, control coat in the 15-mer series, hybridoma supernatant.

Experiment [1] concerns the target T9, TDP-3 peptide (human).
T9 construct: Irrelevant control peptide; conjugated to Luminex beads in the assay; also called TDP-43 aa 310-370; irrelevant target
T9 peptide: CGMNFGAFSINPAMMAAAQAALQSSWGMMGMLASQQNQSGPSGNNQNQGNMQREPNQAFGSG
In words: Luminex bead assay, serial dilution of the antibody, MFI.

For a further experiment, the target named is T10, TDP-1 peptide (human).
T10 construct: Immunogen peptide; conjugated to Luminex beads in the assay; also called TDP-43 aa 212-272
T10 peptide: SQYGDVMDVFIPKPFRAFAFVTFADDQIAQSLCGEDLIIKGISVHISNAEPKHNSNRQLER
Nature of the experiment: Luminex bead assay, antibody serial dilution, TDP-1 peptide beads.

The target in a further experiment is T11, TP-28 (also: biotinylated, site not given here).
T11 construct: also called TP-28 peptide
T11 peptide: CGEDLIIKGISVHIS
In words: indirect ELISA, biotinylated 15-mer on streptavidin plate, hybridoma supernatant. The procedure: as §1

The target in another experiment is T12, TDP-215 peptide (human).
T12 construct: same ELISA method as for the biotinylated 15-mers
T12 peptide: GDVMDVFI
In words: indirect ELISA, 8-mer peptide library, OD 405 nm. The procedure: as §1
(§2) Furthermore, antibodies were tested using an indirect ELISA on a peptide library of 8-mer peptides with 7 aa overlap covering the sequence of human TDP-43 from aa 210 to aa 231, using the same ELISA method as describe previously in this section.

A further experiment addresses T13, TDP-219 peptide (human).
T13 construct: 8-mer of human TDP-43; same ELISA method as for the biotinylated 15-mers
T13 peptide: DVFIPKPF
Nature of the experiment: indirect ELISA, 8-mer peptide library. As to the method: as §1, §2

For another experiment, the target named is T14, TDP-220 peptide (human).
T14 construct: 8-mer of human TDP-43; same ELISA method as for the biotinylated 15-mers
T14 peptide: VFIPKPFR
In words: indirect ELISA, 8-mer peptide library. The procedure:
as §1, §2

A further experiment addresses T15, TDP-217 peptide (human).
T15 construct: 8-mer of human TDP-43; same ELISA method as for the biotinylated 15-mers
T15 peptide: VMDVFIPK
Nature of the experiment: indirect ELISA, 8-mer peptide library. The procedure:
as §1, §2

The target of a further experiment is T16, TDP-210 peptide (human).
T16 construct: 8-mer of human TDP-43; same ELISA method as for the biotinylated 15-mers
T16 peptide: FFSQYGDV
In words: indirect ELISA, 8-mer peptide library. The procedure:
as §1, §2

The next experiment deals with T17, TDP-218 peptide (human).
T17 construct: 8-mer of human TDP-43; same ELISA method as for the biotinylated 15-mers
T17 peptide: MDVFIPKP
In words: indirect ELISA, 8-mer peptide library. As to the method: as §1, §2

The target in a further experiment is T18, TDP-213 peptide (human).
T18 construct: 8-mer of human TDP-43; same ELISA method as for the biotinylated 15-mers
T18 peptide: QYGDVMDV
In words: indirect ELISA, 8-mer peptide library. As to the method:
as §1, §2

The target of a further experiment is T19, TDP-214 peptide (human).
T19 construct: 8-mer of human TDP-43; same ELISA method as for the biotinylated 15-mers
T19 peptide: YGDVMDVF
In words: indirect ELISA, 8-mer peptide library. The procedure: as §1, §2

For the next experiment, the target named is T20, TDP-222 peptide (human).
T20 construct: 8-mer of human TDP-43; same ELISA method as for the biotinylated 15-mers
T20 peptide: IPKPFRAF
Nature of the experiment: indirect ELISA, 8-mer peptide library. As to the method: as §1, §2

The target of a further experiment is T21, TDP-221 peptide (human).
T21 construct: 8-mer of human TDP-43; same ELISA method as for the biotinylated 15-mers
T21 peptide: FIPKPFRA
Nature of the experiment: indirect ELISA, 8-mer peptide library. As to the method:
as §1, §2

The next experiment concerns the target T22, TDP-223 peptide (human).
T22 construct: 8-mer of human TDP-43; same ELISA method as for the biotinylated 15-mers
T22 peptide: PKPFRAFA
In words: indirect ELISA, 8-mer peptide library. The procedure: as §1, §2

A further experiment addresses T23, TDP-211 peptide (human).
T23 construct: 8-mer of human TDP-43; same ELISA method as for the biotinylated 15-mers
T23 peptide: FSQYGDVM
In words: indirect ELISA, 8-mer peptide library. As to the method:
as §1, §2

Another experiment addresses T24, TDP-212 peptide (human).
T24 construct: 8-mer of human TDP-43; same ELISA method as for the biotinylated 15-mers
T24 peptide: SQYGDVMD
In words: indirect ELISA, 8-mer peptide library. The procedure: as §1, §2

The next experiment has as its target T25, TDP-224 peptide (human).
T25 construct: 8-mer of human TDP-43; same ELISA method as for the biotinylated 15-mers
T25 peptide: KPFRAFAF
Nature of the experiment: indirect ELISA, 8-mer peptide library. The procedure: as §1, §2

Experiment [2] deals with T9, TDP-3 peptide. Nature of the experiment: Luminex bead assay, TDP-3 peptide beads (irrelevant target).
The target of experiment [3] is T26, recombinant human full-length TDP-43 (human, UniProt Q13148 1-414).
T26 construct: Recombinant full-length protein; also called FL TDP-43; recFL TDP-43
Nature of the experiment: SPR avidity (Biacore T200), TDP-43 monomer immobilised, antibody as analyte, 1:1 model. As to the method:
Avidity measurements were performed on an SPR instrument (Biacore T200, GE Healthcare Life Sciences) using CM5 Series S sensor chips. Recombinant human FL TDP-43 monomers or aggregated recombinant human FL TDP-43 was immobilized on a CM5 chip using amine coupling, injecting at a flow rate of 5 μl/min for 420 seconds. Conditions were optimized so that less than 200 RU protein was immobilized. Binding of the antibodies and the control antibody (2E2-D3) were obtained by injecting at: 1.37, 4.11, 12.33, 37, 111, and 333 nM in 1×PBS P+ at a flow rate of 50 μl/min for 90 s contact time and 600 s dissociation phase, with three regeneration cycles of the ligand surface by 10 mM Glycine-HCl (pH 1.7). Kinetics were analyzed using a 1:1 fitting model (see FIG. 8).
A general note: In SPR one partner is held on a chip, and binding of the other changes the refractive index at the surface.

Experiment [4] concerns the target T26, recombinant human full-length TDP-43. In words: Luminex bead assay, antibody serial dilution, FL TDP-43 beads.

Substitutions are numbered along the chain they refer to. Where no end group is shown, it is not given here.

T8 sequence (P02769 25-607 limits assumed): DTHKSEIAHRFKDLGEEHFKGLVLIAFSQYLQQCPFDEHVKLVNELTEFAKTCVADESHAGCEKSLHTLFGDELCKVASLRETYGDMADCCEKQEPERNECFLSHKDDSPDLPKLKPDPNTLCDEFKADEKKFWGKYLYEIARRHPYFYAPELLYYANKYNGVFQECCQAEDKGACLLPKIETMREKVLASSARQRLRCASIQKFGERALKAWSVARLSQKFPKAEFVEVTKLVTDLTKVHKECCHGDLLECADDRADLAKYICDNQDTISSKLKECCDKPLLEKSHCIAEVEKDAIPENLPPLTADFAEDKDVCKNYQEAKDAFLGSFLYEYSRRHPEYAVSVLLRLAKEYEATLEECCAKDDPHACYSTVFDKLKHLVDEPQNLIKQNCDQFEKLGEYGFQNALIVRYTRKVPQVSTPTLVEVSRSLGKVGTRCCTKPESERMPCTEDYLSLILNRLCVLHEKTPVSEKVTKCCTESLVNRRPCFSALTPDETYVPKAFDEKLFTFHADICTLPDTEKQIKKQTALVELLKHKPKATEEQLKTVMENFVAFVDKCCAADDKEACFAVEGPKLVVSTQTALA
T26 sequence (Q13148 whole entry): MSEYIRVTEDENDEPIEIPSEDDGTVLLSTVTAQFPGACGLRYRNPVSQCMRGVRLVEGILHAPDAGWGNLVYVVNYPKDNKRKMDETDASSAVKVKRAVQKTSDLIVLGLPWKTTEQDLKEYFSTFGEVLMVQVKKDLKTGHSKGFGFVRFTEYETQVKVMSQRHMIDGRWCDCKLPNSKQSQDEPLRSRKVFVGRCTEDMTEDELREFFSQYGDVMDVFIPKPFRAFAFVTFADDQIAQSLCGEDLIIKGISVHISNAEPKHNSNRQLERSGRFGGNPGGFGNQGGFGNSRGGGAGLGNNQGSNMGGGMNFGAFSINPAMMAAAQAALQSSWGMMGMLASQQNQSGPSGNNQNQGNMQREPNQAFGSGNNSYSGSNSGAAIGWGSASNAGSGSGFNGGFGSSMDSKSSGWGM

B1: ACI-7062-404D6-Ab2 (antibody, IgG3, V domains shown)
VH: QVTLKESGPGILQPSQTLSLTCSFSGFSLSTYGIGVGWIRQPSGKGLEWLAHIWWNDYKYYNTALKSRLTISKDTSNNRVFLKIASVDTADTATYYCARVYGNLYYFDYWGQGTTLTVSS
VL: DVLMTQTPLSLPVSLGDQASISCRSSQSIVHGSGNTYLEWYLQKPGQSPKLLIYKVSNRFSGVPDRFSGSGSGTDFTLRISRVEAEDLGVYYCFQGSHVPTFGAGTKLELKR
notes: also called 404D6E11; clone 4
Broadly, the EC50 is the concentration needed to bring the measured effect to its halfway point. With B1, the binding result with TP-31, in the experiment with TP-30, with TP-27, with TP-29, in the experiment with TP-26 and in the experiment with BSA was “no binding” each time. For the same molecule, the binding result with TDP-3 peptide [1] is listed as “no binding (tested: about 20000 pM)”. For the same molecule, the OD with TP-25 peptide is 0.9 O.D. (405 nm); with TP-24 peptide, 4 O.D. (405 nm). In the experiment with TDP-1 peptide, the EC50 is < 10 pM.

B2: ACI-7062-401A2-Ab2 (antibody, IgG1, V domains shown)
VH: DVQLVESGGGLVQPGGSRRLSCAASGFTFSRFGMHWVRQAPEKGLEWVAYIRSGSDIIYYADSVKGRFTISRDNPENTLFLQMTSLRSEDTAMYYCARSGTTVPFDYWGQGTSLTVSS
VL: DIVMTQSPSSLAMSVGQKVTMSCKSSQSLLNSGDQKNYLAWYQQKPGQSPELLLYFASTRASGVPDRFIGSGSGTDFSLTISSVQAEDLADYFCQQHYSIPLTFGAGTKLELKR
notes: also called 401A2C6; clone 2
For B2, the binding result with TP-31, in the experiment with TP-30, with TP-27, with TP-29, with TP-28 and with TP-26 was “no binding” throughout. Further, the binding result was “binds” with TDP-215 peptide; “no binding” with BSA; “no binding (tested: about 20000 pM)” with TDP-3 peptide [1]; “no binding” with TDP-219 peptide; “no binding” with TDP-220 peptide; “no binding” with TDP-217 peptide. For the same molecule, the binding result in the experiment with TDP-210 peptide, with TDP-218 peptide, with TDP-213 peptide, with TDP-214 peptide, with TDP-222 peptide and in the experiment with TDP-221 peptide was “no binding” throughout. In addition, the binding result with TDP-223 peptide, with TDP-211 peptide, with TDP-212 peptide and with TDP-224 peptide was “no binding” throughout. Further, the values for the OD in the experiment with TP-25 peptide and in the experiment with TP-24 peptide were 1 O.D. (405 nm) and 2.5 O.D. (405 nm), respectively. Moreover, the EC50 with TDP-1 peptide is < 10 pM.

B3: ACI-7062-415H10-Ab2 (antibody, IgG3, V domains shown)
VH: B2 VH with R19K, R31S, R52S, D56S, I57N, A61T, S63T, E76K, M93I, S113T
VL: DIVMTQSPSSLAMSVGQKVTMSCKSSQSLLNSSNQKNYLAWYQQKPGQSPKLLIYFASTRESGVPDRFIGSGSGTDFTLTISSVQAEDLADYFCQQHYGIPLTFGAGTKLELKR
notes: also called 415H10B7; clone 17
For the molecule B3, the binding result in the experiment with TDP-3 peptide [2], with TP-31, with TP-30, with TP-27, with TP-29 and in the experiment with TP-28 was “no binding” in each case. Moreover, the binding result with TP-26 and with BSA was “no binding” throughout. In addition, the Kd in [3] is 1100 pM. Further, the EC50 is 160 pM in [4] and < 10 pM with TDP-1 peptide. Also, the OD is 1.2 O.D. (405 nm) with TP-25 peptide and 3.9 O.D. (405 nm) with TP-24 peptide.
